{"source": "paper PMC7563236", "target": "His6-Ku70-tRFP (human) (UniProt P12956)", "assay": "SDS-PAGE without heat denaturation, fluorescence in the gel; samples not denatured at 94 °C; bands of His6-Ku70-tRFP seen by tRFP fluorescence"}
{"substance": "His6-Ku70-tRFP (from UniProt P12956 1-609) (natural protein)", "values": [{"measurement": "stoichiometry N", "value": 2}]}
